Experimental data from patent US20120196335A1, “LIGF-TYPE TRANSFORMANTS FOR BIOCONVERSION OF LIGNIN-DERIVED COMPOUNDS” (priority 2010, published 2012).

Columns and labels:
[1] = in vitro biochemical assay for beta-etherase activity on fluorescent substrate MUAV (clarified E. coli cell extracts); settings: 0.1 mM MUAV substrate; E. coli cell extracts expressing the protein
Source text: The model substrate synthesis 150 for use in the biochemical screening for selective activity can be outsourced through a contract research organization (CRO). The enzyme discovery effort can initially be focused on identifying potential beta-etherase candidate genes identified through bioinformatic methods. […] The fluorescent substrate α-O-(β-methylumbelliferyl)acetovanillone (MUAV), for example, can be used in in vitro assays to identify beta-etherase function (Acme Biosciences, Mt. View, Calif.). The formation of 4 methylumbelliferone (4MU) upon hydrolysis of the aryl ether bond can be monitored by fluorescence, for example, at λex=365 nm and λem=450 nm (or 460 nm).
The enzyme screening 155 is done to identify novel etherases 160. […] Expression of the beta-etherase genes can be done in 5 ml or 25 ml samples of the recombinant E. coli strains in LB medium using induction with IPTG. Following induction, and cell harvest, cell pellets can be lysed using the BPER (Invitrogen) cell lysis system. […] The formation of 4 methylumbelliferone (4MU) upon hydrolysis of the aryl ether bond in MUAV can be monitored by fluorescence at λex=365 nm and λem=460 nm, and can provide quantitative measurement of beta-etherase function. Cell extracts of E. coli transformed with the S. paucimobilis ligE and ligF genes can be the assay positive controls. Test or unknown samples can include, for example, E. coli strains expressing putative beta-etherase genes from N. aromaticovorans.
This example describes a method for gene expression in E. coli, as well as beta-etherase biochemical assays. Expression of known and putative beta-etherase genes was performed using 5 ml cultures of the recombinant E. coli strains described herein in Luria Broth medium by induction of gene expression using isopropylthiogalactoside (IPTG) to a final concentration of 0.1 mM. Following induction, and cell harvest, the cells were disrupted using either sonication or the BPER (Invitrogen) cell lysis system.
In vitro reactions were performed in a total volume of 200 ul and contained: 25 mM TrisHCl pH 7.5; 0.5 mM dithiothreitol; 1 mM glutathione; 0.05 mM or 0.1 mM MUAV; 10 ul of clarified cell extract used to initiate the reactions. Following incubation for 2.5 hours at room temperature, a 50 ul sample of the reactions was terminated using 150 uL of 300 mM glycine/NaOH buffer pH 9. The formation of 4 methylumbelliferone (4MU) upon hydrolysis of the aryl ether bond was monitored by the increase in fluorescence at λex=360 nm and λem=450 nm using a Spectramax UV/visible/fluorescent spectrophotometer.
The total protein concentrations of the cell lysates were determined using the BCA reagent system for protein quantification (Pierce).
Induction might be also performed using IPTG concentrations in the range of 0.01-1 mM. Cell disruption might be also performed using toluene permeabilization, French pressure techniques, or using multiple freeze/thaw cycles in conjunction with lysozyme. Assay conditions might be varied to include TrisHCl at 10-150 mM concentrations and in the pH range of 6.5-8.5; 0-2 mM dithiothreitol; 0.05-2 mM glutathione; 0.01-5 mM MUAV substrate; 22-42° C. reaction temperatures. The biochemical assay might be performed as a fixed time point assay with reaction times ranging from 5 minutes-12 hours, or performed continuously without quenching with glycine/NaOH buffer to extract enzyme kinetic parameters.

[2] = LigDFEG gene cluster, FIG. 2B; cited from earlier work

B1: LigF: S. paucimobilis beta-etherase, positive control, GenBank BAA02031.1, SEQ ID NO:513 (protein)
chain: MTLKLYSFGPGANSLKPLATLYEKGLEFEQVFVDPSKFEQHSDWFKKINPRGQVPALWHDGKVVTESTVICEYLEDVFPESGNSLRPADPFKRAEMRVWTKWVDEYFCWCVSTIGWAFGIKAIAQKMSDEEFEEHINKNVPIPEQQLKWRRARNGFPQEMLDEEFRKVGVSVARLEETLSKQDYLVDTGYSLADICNFAIANGLQRPGGFFGDYVNQEKTPGLCAWLDRINARPAIKEMFEKSKREDLLKRQNEKVA
[1]
  total activity (beta-etherase): 558 rfu/ug
[2]
  enzyme activity shown by gene product: β-etherase activity
